Molecular target: the molecule itself
Assay: cryo-EM structure

B1: Erwinia ligand-gated ion channel (ELIC), wild type (natural protein)
chain: APADNAADARPVDVSVSIFINKIYGVNTLEQTYKVDGYIVAQWTGKPRKTPGDKPLIVENTQIERWINNGLWVPALEFINVVGSPDTGNKRLMLFPDGRVIYNARFLGSFSNDMDFRLFPFDRQQFVLELEPFSYNNQQLRFSDIQVYTENIDNEEIDEWWIRKASTHISDIRYDHLSSVQPNQNEFSRITVRIDAVRNPSYYLWSFILPLGLIIAASWSVFWLESFSERLQTSFTLMLTVVAYAFYTSNILPRLPYTTVIDQMIIAGYGSIFAAILLIIFAHHRQAMGVEDDLLIQRCRLAFPLGFLAIGCVLVIRGITL
- stoichiometry N: 5
